# Assay: yeast display, Sf9 membrane polyspecificity reagent, FACS + sequencing; frameworks hold sequencing errors
# Summary of the method: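 After 36–48 hours of galactose induction, yeast (Saccharomyces cerevisiae BJ5465) displaying a synthetic nanobody library were stained at 4 °C for 1 hour with 10% biotinylated, detergent-solubilized Sf9 membrane reagent. Streptavidin microbeads enriched the stained cells before FACS sorting into low and high (top ~1%) gates on anti-HA and streptavidin fluorescence. Each clone's polyreactivity label reflects its gate of origin.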
row,Sequence,polyreactivity (PSR sort gate)
1,QVQLVESGGGLVQAGRSLRLSCAASGIIFEWNGMGWYRQAPGKERELVAALPWSGGSTYYADSVKGRFTISRDNAKNTVYLQMNSLKPEDTAVYYCNAYWKDDFEDGPGRRGMDYWGQGSQVTVSS,low polyreactivity
2,QVQLVESGGGLVQAGRSLRLSCAASGITFESYAMGWYRQAPGKEREFVAAISRSSGSTYYADSVKGRFTISRDNAKNTVYLQMNSLKPEDTAVYYCATRSFRDDGFGRYYYWGQGTLVTVSS,high polyreactivity
3,QVQLVESGGGLVQAGRSLRLSCAASGLIFYCYVMGWYRQAPRKERELVAGISRNSGSTYYADSVKGRFTISRDNAKNTVYLQMNSLKPEDTAVYYCAKAYYRRYAAPGYDYWGQVTQVTVSS,low polyreactivity
4,QVQLVESGGGLVQAGRSLRLSCAASGLTFSAYAMGWYRQAPGKEREFVAAITDSDGSTYYADSVKGRFTITRDNAKNTVYLQMNSLKPEDTAVYYCAASGSWYYGNWSGGYDYWGQGTQVTVSS,low polyreactivity
5,QVQLVESGGGLVQAGRSLRLSCAASGRIFRQNAMGWYRPAPGKETELVAAIDWNGTSTYADSVKGRFTISRDNAKNTVYFQLNSLKPVDTAVYYCTARYGRTSPDGDYWGQGTQVTVSS,low polyreactivity
6,QVQLVESGGGLVQAGRSLRLSCAASGRNFTYYAMGWDRQAPGKERELVAAISGSAGSTYYADSVKGRFTISRDNAKNTVYLQMNSLKPEDTAVYYCNAVLVRQRDRGGYWGQGTQVTVSS,high polyreactivity
7,QVQLVESGGGLVQAGRSLRLSCAASGRTFGGNAMGWYRQAPGKERELVAAIDQSGGSTYYADSVKGRFTISRDNAKNTVYLQMNSLKPEDTAVYYCATHDGGTYYVREPNVKYDYWGQVTQVTVSS,low polyreactivity
8,QVQLVESGGGLVQAGRSLRLSCAASGRTMNGNAMGWYRQAPGKERELVAAITRGGSTYYADSVKGRFTISRDNEKNSVYLQMYSLKPEVTAVYYCAADARYTGYYYWGQGTQVTVSS,high polyreactivity
9,QVQLVESGGGLVQAGRSLRLSCAASGSIFPGNAMGWYRQAPGKERELVASINWSGGSTYYADSVKGRFTISRDNAKNTVYLQMNSLKPEDTAVYYCNADPGYYDYDYWGQVTQVTVSS,low polyreactivity
10,QVQLVESGGGLVQAGRSLRLSCAASGSIFRYYAMGWYRQAPGKERELVAAISSSGGSTYYADSVKGRFTISRDNAKNTVYLQMNSLKPEDTAVYYCAAVWLSGYGDNYWGQGTQVTVSS,high polyreactivity
11,QVQLVESGGGLVQAGRSLRLSCAASGSILGYYAMGWYRQAPGKERELVAITSGDSTYYADSVNGRFTISRDNAKNTVYLQMNSLKPEDTAVYYCAAEGQNEGYDYWGQGTKVTVSS,high polyreactivity
12,QVQLVESGGGLVQAGRSLRLSCAASGSTFPVNTMGWYRQAPGKERELVAAITKNGANTYYADSVKGRFTISRDNAKNTVYLQMNSLKPEYTAVYYCAALYVYGKSYSRWLVELDYWGQGTQVTVSS,low polyreactivity
13,QVQLVESGGGLVQAGRSLRLSCAASGSTFSSYGMGWYRQAPGKDRELDASITIRGGSTYYADSVKGRFTISRDNAKTTVCIQMNSLKPEDTAVYYCAADVTNRGTWVIYGYYYWGQGTQVTVSS,low polyreactivity
14,QVQLVESGGGLVQAGRSLRLSCAASGSTFVPYAMGWYRQAPGKERELVAAITTSGGNTYYADSVKGRFTISRDNAKNTVYLQMNSLKPEDTAVYYCAADTYRRFDYWGQGTQVTVSS,low polyreactivity
15,QVQLVESGGGLVQAGRSLRLSCAASGTFIGYAMVWYRQAPGKERELVAAIDESGGSTYYADSVKGRFTISRDNAKNTVYLQMNSLKPEDTAVYYCAAYRYYSDYDYWGQGTQVTVSS,low polyreactivity
16,QVQLVESGGGLVQAGRSLRLSCAASGTIFAFYAMGWYRQAPGIVRELVAAITWRGGRTTYADSVKGRFTISRDNAKNTVYLQMNSLKPEDTAVYYCAAVIHWWYATYDYWGQGTQVTVSS,high polyreactivity
17,QVQLVESGGGLVQAGSSLRLSCAASGSTFLYYAMGWYRQAPGKEREMVAAITSSGGRTYYADSVKGRFTNSRDNAKNTDYLQMNSLKPEDTAVYYCARGWPRREQSEYDYWGQGTQVTVSS,high polyreactivity
18,QVQLVESGGGLVQAGVRLRLSCAASGFTFAGTAMGWYRQAPGKERELVAAITSGGSTYYADSVKGRFTISRDNAKNTVYLQMNSLKPEDTAVYYCAALVFRGRSFTHDYWGQGTQVTLSS,high polyreactivity
19,QVQLVESGGGLVQAGVRLRLSCAASGITFYINAMGGYRQAPGKERELVAVIDSRGSSTFYADSVKGRFTISRDTAKNTVYLQMNSLKPEDTAVYYCAAEAPSWYDRQYDYCGQGTQVTVSS,low polyreactivity
20,QVQLVESGGGLVQAGVSIRLSCAASGSIYENNAMGRYRQAPGKERELVAGITWSGGSTRYADSVKGRFTISRDNAKNTVYLQMNSLKPEDTAVYYCATDDFTYVVAKDGDYWGQGTQVTVSS,low polyreactivity

row,Sequence,polyreactivity (PSR sort gate)
1,QVQLVESGGGLVQAGVSLRISCAAAGFTFERYAMGWYRQAPGKERELVATISRRGGSTNYADSVKGRFTISRDNAKNTVYLQMNSLKPEDTAVYYCARTLYRGKSYHVHSKYDYWGQGTQVTVSS,high polyreactivity
2,QVQLVESGGGLVQAGVSLRISCAASGFTFPEYDMGWYRQAPGKERELVATISGNGGRTYYADSVKGRFTISRYNAKNTVYLQMNSLKPEDTAVYYCAALLYIRSVVYDYWGQGTQVTVSS,low polyreactivity
3,QVQLVESGGGLVQAGVSLRLSCAASASTFTKYAMGWYRQAPGKERELVAAITASGGNTYYADSVKGRFTISRDNAKNTVYLQMYSLKPEDTAVYYCATGYHRWSSWALDYWGQGTQVTVSS,high polyreactivity
4,QVQLVESGGGLVQAGVSLRLSCAASGFILGYNAMGWYRQAPAKERELVAAITRGGSTYYADSVKGRFTISRDNSKNTVYLQMNSLKPEDTAVYYCAAAYRGYSSTLWLGHWGQGTQVTVSS,high polyreactivity
5,QVQLVESGGGLVQAGVSLRLSCAASGFISPKYGMGWYRQAPGKERELVAAITSSGGSTYYADSVKGRFTISRDNAKNTVYLQMNSLKPEDTAVYYCATRQVSRLYPYRYNYWGQGTQVTVSS,high polyreactivity
6,QVQLVESGGGLVQAGVSLRLSCAASGFTFDYYTMGWYRQAPGKEREFVAAITWNGGTTNYADSVKGRFTISRDNAKNTVYLQMNSLKPEDTAVYYCAATAYWYYSNDSGRSYDYWGQGTQVTVSS,low polyreactivity
7,QVQLVESGGGLVQAGVSLRLSCAASGFTFSRYGMGWYRQTPGKERELVAAITWSGGNTNYADSVKGRFTISRDNAKNTVYLQMNSLKPEDTAVYYCNAPRGYWSQSHFDYWGQGTQVNVSS,high polyreactivity
8,QVQLVESGGGLVQAGVSLRLSCAASGGIFADYAMGWYRQAPGKERELVAAISSGGNTNYADSVKGRFTISRDNAKNTVYLQMNSLKPEDTAVYYCNRDTSYYRYVYYEGNDYWGQGTQVTVSS,low polyreactivity
9,QVQLVESGGGLVQAGVSLRLSCAASGNTFRINTKLCYRQAPGKERDLVATITRRGGSTYYADSVKGRFTISRDNAMNTVYLQMNSLNPEDSAVYYCAARVRGTGVYGGYNYWGQGTQVTVSS,high polyreactivity
10,QVQLVESGGGLVQAGVSLRLSCAASGRIFGTNAMGWYRQAPGKERELVADITSGGSTNYADSVKGRFTISRDTAKNTVYLQMNSLKPEDTALYYCAADVIGDMRWYRDEYRGQGTQVTVSS,low polyreactivity
11,QVQLVESGGGLVQAGVSLRLSCAASGRIFYRYAMGWYRPPPVKERELVAGITSGGSTYYADSVKGRFTISRDNAKNTVYLQMMSLKPEDTAVYYCAAVSYRSRTHRYPATFAYGSWGQGTQETVSS,high polyreactivity
12,QVQLVESGGGLVQAGVSLRLSCAASGRTFYVNAMGWYRQAPGKERELVAAISYSDGITYYADSVKARFTISRDNAKNTVYLQMNSLKPEDTAVYYCAAEGYHYYSQRAGVDYWGQGTQVTVSS,high polyreactivity
13,QVQLVESGGGLVQAGVSLRLSCAASGSIFRWNAMGWYRQAPGKERELVAAITGSGGSTYYADSVKGRFTISRDNAKNTVYLQMNSLKPEDTAVYYCAAKSPRILLDYWGQGTQVTVSS,low polyreactivity
14,QVQLVESGGGLVQAGVSLRLSCAASGSIFSWNAMGWYRQAPGKERELVATITWNGGRTYYADSVKGRFTISRDNAKNTVYLQMNSLKPEDTAVYYCAARYYVYWTYPYRVLSYYYWGQGTQVTVSS,high polyreactivity
15,QVQLVESGGGLVQAGVSLRLSCAASGSIFYEYAMGWYRQAPGKEREFVAAISSSGGSTYYADSEKGRFTISRDNAKNSVYLQMNSLKPEDTAAYYCNAQVGGVSFEYDYWGQGTQVTVSS,low polyreactivity
16,QVQLVESGGGLVQAGVSLRLSCAASGSLFSANAMGWYRQAPGKERELVASITGDGSTNYADSVKGRFTISRDNAMNTVYLQMNSLKPEDTAVYYCAADIGSWYDYWGQGTQVTVSS,low polyreactivity
17,QVQLVESGGGLVQAGVSLRLSCAASGTFYYAMGWYRQAPGKEREFVAAISWRGGTTYYADSVKGRFTISRDNAKNTVYLQMNSLKPEDTAVYYCATAPYVTSRRYGPYEYWGQGTQVTVSS,low polyreactivity
18,QVQLVESGGGLVQAGVSLRLSCAGSGSIFRSYTMGWYRQAPGKERELVAAISYSGGRTYYADSVMGRFTISRDNAKNTVYLQLNSLKPEDTAVYYCARRYYVTGCVGYDYWGQGTQVTVSS,high polyreactivity
19,QVQLVESGGGLVQAGVSLRLSCPASGRTFGWYAMGWYRQAPGTERELVAAITSGTSTYYADSVKGRFTISRDNAKNTVYLQMNSLKPEDTAVYYCAVDRGISVGYTRFDYWGQGTQVSVSS,low polyreactivity
20,QVQLVESGGGLVQAGVSLRLSCSASGGTFPQYAMAWYRHAPGKEREFVADITSRGGTTYYADSVKGRFTISRDNAKNTVFLQMNRLKPEDTAVYFCAADNPADWWGLDYWGQGTQVTVSS,low polyreactivity

# Reference: the nanobody polyreactivity screen of Harvey et al. (2022)
